± gives the uncertainty stated by the source.

A short description of this data set: amyloid nucleation score (Sup35N fusion, yeast selection) (log enrichment); library NNK1; higher = more nucleation; inactive = no reads after selection. Put shortly:
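Peptides of 20 random codons, each fused to Sup35N, were expressed in psi-negative yeast. Cells were induced with 100 μM copper sulfate for 24 hours and grown 7 days at 30°C on medium lacking adenine and uracil, and plasmid inserts before and after selection were Illumina-sequenced. Nucleation scores are DiMSum log enrichments of output over input reads, centred on the mode score of non-aggregating sequences, and sequences under 100 input reads were excluded.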
Take ELVKFIVRADNDSWVGRASV: the amyloid nucleation score was found to be 0.267 ± 0.93. Then ELYSDHIMTWM, with 0.69 ± 0.36. The value for EMSIILGIERRNHCVPAMVS was -0.552 ± 1.9; that for EMVLLNATFYYAYCHSNRLR was 0.227 ± 0.27. The value for EMYCVYSFRSYFVYGLSLGS was -0.269 ± 0.36. ENARHRCDQ yielded an amyloid nucleation score of 0.571 ± 0.38. The value for ENFPPAQ was -0.691 ± 0.5. Then ENIPARRLKCPFNTP, with -0.511 ± 1.2.

ENITPPLYNDDYRYQ: the amyloid nucleation score was determined as 0.305 ± 0.58.

In the case of ENLRHTLHKFITI, the amyloid nucleation score is 0.262 ± 0.62.

ENRTSNFPYKVR returned an amyloid nucleation score of 0.421 ± 0.26. Then ENWATFEEYPT, with 0.243 ± 0.3; and ENYTCRTWAPLSGPRIWVGS, with 0.661 ± 0.77; and EPCCDVRVKGLYMFEYYVVC, with 0.185 ± 1.1. Then EPCMWKVILYCEYVSLVFVK, with -0.974 ± 1.9; and EQLACQNVVSGCQSA, with 0.277 ± 0.97; and ERAQYMSRTVRRVSFKSFFC, with 3.55 ± 0.13.

Regarding ERLGMWDSRMVQLWDSFCIE, the amyloid nucleation score worked out at 0.363 ± 0.48. Then ERPTWVGGDGSSGLVVGSDL, with -0.22 ± 0.81. ERSARGGHPMLAFYMTIPTP had an amyloid nucleation score of -0.067 ± 1.2. The substance ESIFLRRTVALHRKVCLIDW showed an amyloid nucleation score of 0.783 ± 0.36.

Substance ESMLSSIRGLHNG registered an amyloid nucleation score of -0.851 ± 1.7. The value for ESMWVGLKINAVSNYR was 0.3 ± 0.55; that for ESVDGTSHAVGIMNGRLKID was 1.93 ± 0.1. Turning to EVEQVHLFSAVINSWCGDVF, the amyloid nucleation score is 0.575 ± 0.41. Consider EVFDDCGGLMNYM, for which the amyloid nucleation score result was “inactive”.

EVFNEKSVSLRGWNIHGNFC had an amyloid nucleation score of 0.03 ± 0.94.

EVMPPLKLPRHFEEIRAEAG: the amyloid nucleation score was -0.184 ± 0.51. Then EVRTEMIHCNLLTMRFCVLA, with 0.047 ± 0.64; and EWTSAWW, with -0.355 ± 0.36. Then EWVLFDAHAGRLVVPEH, with -0.995 ± 1; and EYGVGDKVIWDDMI, with -0.151 ± 0.27. In turn, EYIMYYWIRIVYFVINGYLV had an amyloid nucleation score of 0.534 ± 0.36.

As for EYNGCYFPRIM, the amyloid nucleation score turned out to be 0.628 ± 0.66. Then EYNSFWTVVSMILTVKWLSG, with 0.502 ± 0.24; and FADNWLCKIRYSCGISLSKY, with -0.739 ± 0.39. The value for FAFRRSI was 0.332 ± 0.9. The value for FANFIAVMVTGTILF was “inactive”; that for FANLDSMNLIGKGFSMNYAL was -0.614 ± 0.97. The substance FAQMWSLALRISVRNVISQF returned an amyloid nucleation score of 5.954 ± 0.047.

Take FASILVFQNGSIATCAINWV: the amyloid nucleation score turned out to be 0.694 ± 0.84.

Substance FATIVFVVKNENFMNADTLR returned an amyloid nucleation score of 5.68 ± 0.08. Regarding FATMGSKKCSGARHSKRGSC, the amyloid nucleation score was -0.26 ± 0.34.

FAVINSPNKAGNRITRLGTY: the amyloid nucleation score stood at 0.681 ± 0.47.

For the substance FAYEAWLMR, the amyloid nucleation score is -0.077 ± 0.27. Then FAYKVLTLMNKPEGKVQSDV, with -1.41 ± 2.4; and FCARGRNRPN, with 1.04 ± 0.5; and FCEDKNRRSSPSIWQNNCKM, with 0.829 ± 0.16.

In the case of FCFLGRCEQHYYLEVHNGSE, the amyloid nucleation score is -0.1 ± 0.49. Then FCLFGRLVTFLAVKMYVNCE, with -0.529 ± 0.3.

With FCMTMRSARCGHLSMYCCFQ, the amyloid nucleation score is 1.8 ± 0.4.

Consider FCNNAPRQEWPILN, for which the amyloid nucleation score was -1.31 ± 0.49. Then FCRRGSWVEPLLTCRYAMEA, with -0.155 ± 0.64. The value for FCSLLHPFTWYLSEHSMGLG was 0.541 ± 0.57; that for FCTLALHNTI was 1.24 ± 0.64. Then FCWHAFLSVTRFGRKIFFRF, with 0.426 ± 0.35; and FCWLSMRAIRISSS, with 0.531 ± 0.44.

For the substance FCYIHGILGRSVEYDDFCLL, the amyloid nucleation score came to 0.184 ± 0.36. The value for FDIIK was -0.358 ± 1.4; that for FDLRLRWRVA was 0.295 ± 0.27. The value for FDMCSGISGD was 0.839 ± 0.36. FDNTGDCTNFYQLSDWSP showed an amyloid nucleation score of 1.05 ± 0.22. In the case of FDSQDSISFGDGTFKSVWPM, the amyloid nucleation score turned out to be 0.177 ± 0.31. Then FDVIGSCVGDQWTAGMDWTL, with 0.429 ± 0.51; and FDVYFSVPFFTLLYNDPKWF, with 2.35 ± 0.12.

FDWGGTAYKKA: the amyloid nucleation score was 1.01 ± 0.97. Substance FECCAVLLYMGRVNACRVCC yielded an amyloid nucleation score of -0.281 ± 0.44.

The substance FEDEPGVSFWNSGGFK had an amyloid nucleation score of -1.07 ± 0.62. The value for FEDGTCALR was -0.059 ± 0.62; that for FEKTIHFV was 0.43 ± 0.36; that for FELGLNCCFLGLVVYAQVNA was “inactive”. Substance FFAGSQIFIHRSLEWI had an amyloid nucleation score of 1.68 ± 0.17.

With FFCERVLPVRVVC, the amyloid nucleation score was determined as 1.06 ± 0.76. With FFFALFFQRSTTRGWLSGQL, the amyloid nucleation score was 0.91 ± 0.62. FFGCCSRGARIDHVSRNHLL had an amyloid nucleation score of 0.185 ± 0.52. Take FFGHAEDFLYMIRVHAGNNL: the amyloid nucleation score is -0.379 ± 0.41.

Regarding FFGLFQLETWA, the amyloid nucleation score worked out at 0.02 ± 0.37. With FFGMLDPSTER, the amyloid nucleation score is -0.73 ± 0.36.

Regarding FFINQRDLLS, the amyloid nucleation score is -0.084 ± 0.46. The value for FFLMISKLAKWKGVARKTAL was -0.937 ± 2.1. The value for FFLMQYILYYKKQSDMFVSL was -0.912 ± 1.7; that for FFLVRMCKSRDVTVTVGGSH was 1.53 ± 0.14; that for FFRIACL was -0.704 ± 0.45. Then FFRIARCHLEDRWVMIAGVL, with 0.118 ± 0.68; and FFRRS, with 0.924 ± 0.26; and FFSMSSVTNKFSTSCRLNHS, with 3.18 ± 0.099. As for FFSPSNKNYKR, the amyloid nucleation score was -0.215 ± 0.35.

Substance FFSYRDSISVKR returned an amyloid nucleation score of -0.449 ± 0.75.

FFVVVRAHIDPR registered an amyloid nucleation score of 0.188 ± 0.5. The value for FFYNLFDILFFSFFRILSII was “inactive”; that for FGANHCKRSNGK was 0.233 ± 0.22; that for FGDSFLSYGHMLIFFWYMTM was 1.21 ± 0.64. Then FGHYALRANILLTPITKGMS, with 0.892 ± 0.56; and FGIPAHNLLCYGCFLNWILV, with “inactive”. The value for FGLEK was 1.25 ± 0.64; that for FGLYYLSNSEFMYVDRFHLG was -0.575 ± 0.38; that for FGNRELFLYFVCVKRDILVG was -1.23 ± 0.64. For the substance FGQCSSLVLT, the amyloid nucleation score result was “inactive”. The value for FGRGHGLTGR was 0.25 ± 0.63. Then FGRVRCLESEICSCGFFVDE, with 3.03 ± 0.15. Substance FHDLGSKCYSMRGTADCFSR had an amyloid nucleation score of 0.347 ± 0.72. Then FHPKFWCNRFS, with -0.442 ± 0.72; and FHTRVKEWVGPAFLGSANLG, with 0.25 ± 0.5.

Take FIEHTYVEEG: the amyloid nucleation score came to 0.19 ± 0.23. The value for FIHALLSNYVSIIFSNDRIC was 2.31 ± 0.59; that for FIIISACSWLLSNWKTSGST was 6.974 ± 0.056; that for FIIPDRVRFLKGMTSFVNSS was -0.349 ± 1. The value for FILPLCMGVLLSAIETLGTC was 1.09 ± 0.81; that for FIPQFYSVAMKLGCVRFVVL was 0.577 ± 0.56; that for FIRFLNTVGSWSLWMPYMVF was 0.851 ± 0.42. Then FIRLLGSMV, with 0.622 ± 0.84; and FIRVMRA, with “inactive”; and FISVMTLRLEKFEVVGDMKL, with -0.43 ± 0.39. FIVERDTHQGMHFGLMLING yielded an amyloid nucleation score of 0.286 ± 0.62. In the case of FIYMQSVCAWFISWNSFR, the amyloid nucleation score was determined as 0.355 ± 0.86. Take FIYVDSGDKNGYCACDKFLP: the amyloid nucleation score was determined as 6.059 ± 0.052. Then FKDLNIWDWKNGAHITNCLG, with 1.05 ± 0.63. The value for FKEFTAIDKSRSVLLNLEPD was “inactive”; that for FKKSNLPSIVWRCDAWLGSS was 0.334 ± 0.3; that for FKLGFGVYIVVGKEGFVVSR was 2.02 ± 0.23. Then FKRFLSLVCV, with 0.1 ± 0.53; and FKSVFVRTIHATYIVSWAN, with -0.413 ± 1.5; and FKYYQAGSYNRKRMTQDGGS, with 0.175 ± 0.46. The substance FLCMPL showed an amyloid nucleation score of 0.266 ± 0.41. Then FLICVTSNWLGTYCRVERFW, with 0.023 ± 0.35. Then FLKDIYVYVTLVCHLRSLAS, with -0.589 ± 0.49; and FLKGYHCVNDDSGNFFIVYI, with 2.02 ± 0.11. The value for FLLGSYILWECNHGSHHMSG was 0.06 ± 0.23; that for FLLREQQGLTEVMKEV was 0.481 ± 0.52. In the case of FLNMQYRGLQ, the amyloid nucleation score is 3.42 ± 0.11. FLSGYGSCLELANVIRWLEN: the amyloid nucleation score is 1.19 ± 0.69. The value for FLSRGSVWVVGSTFECHYEW was 0.205 ± 0.56; that for FLVLND was 0.273 ± 0.2. Then FLWDNAVSKVKFITFVWPHI, with 0.86 ± 0.32; and FLYVNLL, with 0.091 ± 0.19. The value for FMTFVYTGTSFSR was 0.523 ± 0.71; that for FNAVATKSVNRGRSLLDVTQ was 0.62 ± 0.8. In the case of FNDLYLGAYSRREDTNYVRL, the amyloid nucleation score is 0.198 ± 0.56. Then FNFMVNRLMVKVGLVSWRQY, with 0.029 ± 1.6; and FNLNNGIR, with “inactive”; and FNSYKGLIVQKYPSMTLN, with 0.302 ± 1.

The values above are taken from the supplement of paper PMC12042874.
